# Data taken from US20190212347A1, “BIO-ANALYTICAL METHOD FOR INSULIN ANALOGUES” (BIOCON LIMITED, priority 2016, published 2019).
# Key:
# [1] = Stability of stock solution in acetic acid (2%) in methanol:water; assay type: physicochemical; settings: acetic acid (2%) in methanol:water (30:70 v/v)
# Protocol: Two separate stock solutions were prepared by dissolving 2 mg of IN-105 and dissolving in 1 mL of 2% acetic acid containing methanol:water in the ratio of 30:70 v/v. Thus, the stock solution of 2000 μg/mL was prepared.
# One was named “calibration stock” and other was named “quality control stock”. The stock solution was stored at −20° C. for 40 days.
# In one embodiment nitrogen isotope labelled insulin having purity 96.3% and 96.1% respectively, was used as analytical standard and internal standard for further analysis. Glargine (3.64 mg/mL) of 100% purity was used as co-administered standard in the analytical procedure. The stability studies to understand storage stability and solution stability were carried out.
# In addition to the experiments described above, selectivity of the method in plasma (K2EDTA/K3EDTA) from different sources, effect of lipaemia and haemolysis, selectivity and modification of ionisation of insulin in the presence of Glargine and stability of solutions of insulin or insulin analogues investigated.
# [2] = Stability in human plasma (room temperature, freeze/thaw, frozen storage); assay type: in vitro ADME
# Protocol: Assessment of sample stability on storage (storage stability) was carried according to table (8), Acceptance criterion was defined as a recovered concentration within ±15% of the nominal spiked concentration. All standards were used within its stability period.
# Validation consisted of intra run precision and bias, inter-run precision and bias, dilution integrity, matrix related modification of ionisation, auto-injector carry over, stability in whole blood at room temperature and on ice, freeze thaw stability of plasma over 5 cycles, 24 h room temperature stability of plasma, […], recovery and extract stability at 10° C.
# [3] = Extract stability at 10° C.; assay type: physicochemical; settings: extracts stored at 10° C. for approximately 85 hours
# Protocol: Validation consisted of intra run precision and bias, inter-run precision and bias, dilution integrity, matrix related modification of ionisation, auto-injector carry over, stability in whole blood at room temperature and on ice, freeze thaw stability of plasma over 5 cycles, 24 h room temperature stability of plasma, frozen stability in plasma at −20 and −80° C. for 73 days, recovery and extract stability at 10° C.
# [4] = Pharmacokinetics study: IN-105 plasma levels by LC/MS/MS in euglycemic clamp study in patients with Type 1 diabetes; assay type: in vivo, human
# Protocol: The method was considered validated successfully since it passed all the pre-determined criteria in the validation protocol. The validated method was subsequently used for measurement of IN-105 levels in a euglycemic clamp study carried out in patients with Type 1 diabetes. The method for the determination of IN-105 in human plasma has been validated successfully over the concentration range 0.200 ng/ml to 50.0 ng/mL.
# Plasma concentration data for each patient and treatment was analysed by a non-compartmental method. The area under plasma level curve for AUC0-t was calculated by the trapezoidal rule. The primary pharmacokinetic parameters (mean±SD) were Cmax, AUClast, Tmax and PD parameters were Tmin, Cmin, AUClast. Ratios and 90% CIs of geometric means were calculated for PK and PD parameters from mixed effects model with fixed effects for sequence, period and treatment, and patients within sequence as a random effect for log transformed Cmax and AUC.
# The average plasma concentration time profile of IN-105 obtained after administration of IN-105 tablets in volunteers is shown in FIGS. 13-14.
# [5] = room temperature, up to 24 hours
Substance,"solution stability at room temperature [1, 5]","solution stability at −20° C. ([1]; −20° C., up to 40 days)",frozen stability in plasma at −20° C. ([2]; 244 days storage at −20° C.),frozen stability in plasma at −80° C. ([2]; 244 days storage at −80° C.),freeze/thaw stability in plasma ([2]; after five freeze/thaw cycles),"stability in plasma stored at room temperature [2, 5]",extract stability [3],"mean plasma concentration as a function of time after dosing ([4]; 30 mg/kg dose, FIG. 15)","AUClast (AUCt) as function of dose: intercept ([4]; AUClast in ng · h/ml, linear regression against dose) [area units]","AUClast (AUCt) as function of dose: slope ([4]; AUClast in ng · h/ml, linear regression against dose, oral tablets, T1D patients) [area units/mg]","Cmax as function of dose: intercept ([4]; Cmax in ng/ml, linear regression against dose) [concentration units]","Cmax as function of dose: slope ([4]; Cmax in ng/ml, linear regression against dose, oral tablets, T1D patients) [concentration units/mg]",correlation of maximal plasma concentration and area under the PK curve with dose ([4]; p<0.05)
[^15N] IN-105: IN-105 labelled with stable isotope 15N by fermentation in labelled medium; used as internal standard,stable,stable,,,,,,,,,,,
IN-105: rapid acting insulin analogue for oral delivery; human insulin sequence conjugated with short chain alkyl-polyethylene glycol at ε-amino group of lysine B29,,,stable,stable,stable,stable,stable,well-defined peak concentration and subsequent clearance is evident,−243.525,26.427,−2.421,0.431,linearly correlated significantly
